Reference: publication PMC2843395 (Journal of molecular biology, 2010)
Like-named read-outs stand apart in the source and are kept apart here. *: point of attachment. TAMRA = 5-carboxytetramethylrhodamine, CN(C)c1ccc2c(-c3ccc(C(=O)*)cc3C(=O)[O-])c3ccc(=[N+](C)C)cc-3oc2c1

B1: S100B (wild-type, recombinant) (natural protein, bovine)
chain: MSELEKAVVALIDVFHQYSGREGDKHKLKKSELKELINNELSHFLEEIKEQEVVDKVMETLDSDGDGECDFQEFMAFVAMITTACHEFFEHE
B2: TAMRA-TRTK12-am (peptide)
peptide: {TAMRA}-TRTKIDWNKILS-NH2
SMILES: CC[C@H](C)[C@H](NC(=O)[C@H](CCCCN)NC(=O)[C@H](CC(N)=O)NC(=O)[C@H](Cc1c[nH]c2ccccc12)NC(=O)[C@H](CC(=O)O)NC(=O)[C@@H](NC(=O)[C@H](CCCCN)NC(=O)[C@@H](NC(=O)[C@H](CCCNC(=N)N)NC(=O)[C@@H](NC(=O)c1ccc(-c2c3ccc(=[N+](C)C)cc-3oc3cc(N(C)C)ccc23)c(C(=O)[O-])c1)[C@@H](C)O)[C@@H](C)O)[C@@H](C)CC)C(=O)N[C@@H](CC(C)C)C(=O)N[C@@H](CO)C(N)=O

What was measured:
S100B (tight site, EF2) [1] = biological target: T1, S100B (tight site, EF2) (Bos taurus, UniProt P02638); conditions: p53^367–388; ref [21]; cited from earlier work
T1 sequence (P02638 1-92): B1 chain

S100B (tight site, EF2) [2] = biological target: T1, S100B (tight site, EF2); conditions: p53^367–388; ref [21]; cited from earlier work; remark: listed apart in the source
E72A mutant of S100B = assay: fluorescence polarisation
TAMRA-TRTK12-am = assay: fluorescence polarisation
[3] = biological target: S100B (Rattus norvegicus) (UniProt P04631); conditions: cited from earlier work
[4] = biological target: B1; assay: crystal structure
[5] = biological target: B1; assay: fluorescence polarisation
[6] = biological target: B1; assay: fluorescence polarisation; remark: listed apart in the source
crystal structure = biological target: the molecule itself; assay: crystal structure
[7] = biological target: B1; assay: fluorescence polarisation; remark: listed apart in the source
[8] = biological target: B1; assay: fluorescence polarisation; remark: listed apart in the source

For “p53^367–388: peptide derived from the negative regulatory domain of p53 (residues 367–388)”, the “Fold increase in Mn2+ binding of S100B with p53 peptide bound” value (S100B (tight site, EF2) [1]) is listed as 3 fold and the “Fold increase in Ca2+ affinity of S100B EF2 with p53 peptide bound” value (S100B (tight site, EF2) [2]) is listed as 3 fold.

Molecule “TRTK-12 peptide (derived from the actin capping protein CapZ, residues 265-276)” has a Kapp (E72A mutant of S100B) of 110 µM and a Kd (E72A mutant of S100B) of 3.2 µM.

In the case of E72A mutant of S100B (natural protein), the Kd (TAMRA-TRTK12-am) is reported as 16.8 µM.

For S100B (from UniProt P04631), the Kd [3] is listed as < 0.001 µM.

With TRTKIDWNKILS [TRTK-12 peptide (derived from the actin capping protein CapZ, residues 265-276)] the “stoichiometry N” value [4] was 1 per S100B subunit, the Kd [5] was 3 ± 1 µM and the Kd [6] was 2.9 ± 0.5 µM.

For B1, the “stoichiometry N” value (crystal structure) was 2.

B2 showed a Kd [7] of 1.2 ± 0.2 µM and a Kd [8] of 6 ± 2 µM.
